The record followed here is IntAct's records for PubMed 22291008.

The chains are these.
B1: CMRF35-like molecule 5 (Homo sapiens), Q6UXZ3 (parent)
chain: MWLSPSLLLLILPGYSIAAKITGPTTVNGSEQGSLTVQCAYGSGWETYLKWRCQGADWNYCNILVKTNGSEQEVKKNRVSIRDNQKNHVFTVTMENLKRDDADSYWCGTERPGIDLGVKVQVTINPGTQTAVSEWTTTTASLAFTAAATQKTSSPLTRSPLKSTHFLFLFLLELPLLLSMLGTVLWVNRPQRRS
B2: High affinity immunoglobulin epsilon receptor subunit gamma (Homo sapiens), P30273 (parent)
chain: MIPAVVLLLLLLVEQAAALGEPQLCYILDAILFLYGIVLTLLYCRLKIQVRKAAITSYEKSDGVYTGLSTRNQETYETLKHEKPPQ
partner: B1 chain

One experiment covers variants of B1. Particulars: with fcerg_human FCER1G, P30273.
Regarding E173A, the “effect of a mutation on the interaction” value is reported as “with no effect”.

The variants in the next experiment derive from B2. Particulars: with clm5_human CD300LD, Q6UXZ3.
Regarding D29A, the “effect of a mutation on the interaction” value was “decreasing interaction strength”.
